Results reported in patent US20070089183A1, “Size and/or growth engineering by modulation of the interaction between calmodulin, and brassinosteroid biosynthetic enzymes and orthologs therof” (Washington State University, priority 2005, published 2007).

B1: CPD: Arabidopsis CPD (AT5G05690), cytochrome P450 90A1 (protein, listed as Arabidopsis thaliana)
chain: MAFTAFLLLLSSIAAGFLLLLRRTRYRRMGLPPGSLGLPLIGETFQLIGAYKTENPEPFIDERVARYGSVFMTHLFGEPTIFSADPETNRFVLQNEGKLFECSYPASICNLLGKHSLLLMKGSLHKRMHSLTMSFANSSIIKDHLMLDIDRLVRFNLDSWSSRVLLMEEAKKITFELTVKQLMSFDPGEWSESLRKEYLLVIEGFFSLPLPLFSTTYRKAIQARRKVAEALTVVVMKRREEEEEGAERKKDMLAALLAADDGFSDEEIVDFLVALLVAGYETTSTIMTLAVKFLTETPLALAQLKEEHEKIRAMKSDSYSLEWSDYKSMPFTQCVVNETLRVANIIGGVFRRAMTDVEIKGYKIPKGWKVFSSFRAVHLDPNHFKDARTFNPWRWQSNSVTTGPSNVFTPFGGGPRLCPGYELARVALSVFLHRLVTGFSWVPAEQDKLVFFPTTRTQKRYPIFVKRRDFAT
B2: DWF5: Arabidopsis DWF5 (AT1G50430), sterol Δ7 reductase (protein, listed as Arabidopsis thaliana)
chain: MAETVHSPIVTYASMLSLLAFCPPFVILLWYTMVHQDGSVTQTFGFFWENGVQGLINIWPRPTLIAWKIIFCYGAFEAILQLLLPGKRVEGPISPAGNRPVYKANGLAAYFVTLATYLGLWWFGIFNPAIVYDHLGEIFSALIFGSFIFCVLLYIKGHVAPSSSDSGSCGNLIIDFYWGMELYPRIGKSFDIKVFTNCRFGMMSWAVLAVTYCIKQYEINGKVSDSMLVNTILMLVYVTKFFWWEAGYWNTMDIAHDRAGFYICWGCLVWVPSVYTSPGMYLVNHPVELGTQLAIYILVAGILCIYINYDCDRQRQEFRRTNGKCLVWGRAPSKIVASYTTTSGETKTSLLLTSGWWGLARHFHYVPEILSAFFWTVPALFDNFLAYFYVIFLTLLLFDRAKRDDDRCRSKYGKYWKLYCEKVKYRIIPGIY
B3: DWF4: Arabidopsis brassinosteroid biosynthetic enzyme DWF4 (AT3G50660) (protein, listed as Arabidopsis thaliana)
chain: MFETEHHTLLPLLLLPSLLSLLLFLILLKRRNRKTRFNLPPGKSGWPFLGETIGYLKPYTATTLGDFMQQHVSKYGKIYRSNLFGEPTIVSADAGLNRFILQNEGRLFECSYPRSIGGILGKWSMLVLVGDMHRDMRSISLNFLSHARLRTILLKDVERHTLFVLDSWQQNSIFSAQDEAKKFTFNLMAKHIMSMDPGEEETEQLKKEYVTFMKGVVSAPLNLPGTAYHKALQSRATILKFIERKMEERKLDIKEEDQEEEEVKTEDEAEMSKSDHVRKQRTDDDLLGWVLKHSNLSTEQILDLILSLLFAGHETSSVAIALAIFFLQACPKAVEELREEHLEIARAKKELGESELNWDDYKKMDFTQCVINETLRLGNVVRFLHRKALKDVRYKGYDIPSGWKVLPVISAVHLDNSRYDQPNLFNPWRWQQQNNGASSSGSGSFSTWGNNYMPFGGGPRLCAGSELAKLEMAVFIHHLVLKFNWELAEDDQPFAFPFVDFPNGLPIRVSRIL

tested on: Ca^2+/CaM; assay: gel mobility shift assay of BR biosynthetic proteins; assay type: binding, potato; conditions: FIG. 5
Source text: PCM1: potato calmodulin 1; PCM6: potato calmodulin 6. Sequences of respective CaMBD are also shown: N-DWF4 (SEQ ID NO:18); C-DWF4 (SEQ ID NO:19); CPD (SEQ ID NO:17); and DWF5 (SEQ ID NO:20).
DWF1Ca^2+ is an important second messenger and an integral part of the cellular signalling system in plants^5,29. Applicants were thus prompted to survey the CaM-binding properties of other proteins involved in brassinosteroid biosynthesis.

Question: B1 was tested. Which “Ca^2+/CaM binding” value did it give?
Answer: Ca^2+/CaM-binding proteins

Question: For B2, which “Ca^2+/CaM binding” value is on record?
Answer: Ca^2+/CaM-binding proteins

Question: Which “Ca^2+/CaM binding” value does the source give for B3 here?
Answer: Ca^2+/CaM-binding proteins
